In the supplement of paper PMC12042874 one finds amyloid nucleation score data, which are given here for 58 substances.

± gives the uncertainty stated by the source.

This data set can be described thus: amyloid nucleation score (Sup35N fusion, yeast selection) (log enrichment); library NNK2; higher = more nucleation; inactive = no reads after selection. In outline: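 The nucleation score is the DiMSum log enrichment of output over input reads, centred on the mode score of non-aggregating sequences. Only sequences with 100 or more input reads were scored, using Illumina sequencing of input and output plasmid inserts. Psi-negative yeast expressing Sup35N fused to peptides of 20 random codons were induced 24 hours with 100 μM copper sulfate and grown 7 days at 30°C on medium lacking adenine and uracil.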
As to SWLIDLTRHSFLI, the amyloid nucleation score was -1.25 ± 0.78.
In the case of SWMAQCLPRYTHIADQSDGS it was 0.238 ± 0.17; in that of SWMSGVVITETHTALGSWVN, 0.442 ± 0.37; in that of SWNMIQSTIFLPCNLGDYTV, 5.678 ± 0.048.
In the case of SWNSV, the amyloid nucleation score was -0.442 ± 0.41.
Next, SWRAYSSF: 2.73 ± 0.081.
Regarding SWRWKATAT, the amyloid nucleation score was -1.09 ± 0.45.
Next, SWVEGRLDGVFWRLVLFTEN: 0.433 ± 0.74; SWVFVWLSH: -0.256 ± 1.1; SYDVLCILRS: -0.547 ± 0.76.
In the case of SYKGALLSEQIL it was 0.114 ± 0.4; in that of SYLHGDNQLGLSGASFRSRW, “inactive”; in that of SYLVLIHKALSFGRTISDHP, -0.467 ± 0.29.
For SYMCKAHKRLIIGGKWINGW, the amyloid nucleation score is -0.031 ± 0.53.
As to SYRRKYSCRLESINTCAVLC, the amyloid nucleation score was -0.302 ± 0.47.
With SYRSVYYLVMGFPIGHH, the amyloid nucleation score is -1.67 ± 1.
As to SYTSGYLLVYPFVNIVVFYP, the amyloid nucleation score was -1.64 ± 1.1.
SYVMFSIMEH had an amyloid nucleation score of 0.354 ± 0.65.
As to SYYDGCQS, the amyloid nucleation score was determined as 0.646 ± 0.49.
TAGWIFEWTFGPVYVFNSPW returned an amyloid nucleation score of 8.016 ± 0.061.
In the case of TAHYLFTWTLSNVILVCGYD it was -0.867 ± 0.48; in that of TATETFAF, -0.28 ± 0.28.
Next, TCAQYKHGTTVDSNLRSTY: -0.515 ± 0.48; TCDCIIARFDALTSISRLAL: 1.02 ± 0.41.
On to TCDKLGAVVMSLLECVNEAP, for which the amyloid nucleation score was determined as 0.205 ± 0.77.
On to TCDWVVLIYPSSGCCRLEWR, for which the amyloid nucleation score turned out to be 0.99 ± 0.36.
Turning to TCKMIAISRRGIDPGKAMHS, the amyloid nucleation score is -1.16 ± 0.49.
TCLAESGVAMSVS gave an amyloid nucleation score of 0.151 ± 0.29.
In the case of TCLTGKAVSVDHS it was “inactive”; in that of TCQLMMCNFVFCCKMTSTLK, 8.252 ± 0.047.
Substance TCRTSTRRPIGWLSWYVG returned an amyloid nucleation score of 0.654 ± 0.43.
For TCVAACTSRRGGISRLLPGN, the amyloid nucleation score is -0.295 ± 0.38.
In the case of TCWSFECTIEACLLDHVSTR, the amyloid nucleation score worked out at 5.97 ± 0.081.
For TDCIWFHYLVTLWFLIRRCP, the amyloid nucleation score was found to be 0.741 ± 0.66.
With TDIKNRHILSNPWIRLYFLI, the amyloid nucleation score was -1.16 ± 0.62.
As to TDLIAVGCPLMYSMRE, the amyloid nucleation score came to 2.04 ± 0.35.
TDNVIMVERDRASKVCERKG yielded an amyloid nucleation score of 0.433 ± 0.54.
In the case of TDRIDCAFAYDYL it was -1.08 ± 0.54; in that of TDVPSRIGPDMGKYLKAES, 0.655 ± 0.62.
Turning to TDYYAMWFHSIGRFSG, the amyloid nucleation score was -1.33 ± 0.38.
Turning to TECITVVIWVYGAISHRSGT, the amyloid nucleation score is -0.247 ± 0.27.
Regarding TEMWFDGRNSRMIQAH, the amyloid nucleation score worked out at 0.081 ± 0.36.
As to TEPSGTGKTRGSQRTLHRYV, the amyloid nucleation score was -0.323 ± 0.79.
On to TFAATIGTCMVEILSMGSPG, for which the amyloid nucleation score came to 0.603 ± 0.52.
In turn, TFATIRVAFMVMCRFDG displayed an amyloid nucleation score of 3.23 ± 0.084.
Turning to TFDPMVGLGISLSALCMGRL, the amyloid nucleation score is -0.104 ± 0.39.
Consider TFFMVGNMNNTPSPRPARTK, for which the amyloid nucleation score amounted to 4.57 ± 0.089.
As for TFGLHIHKPRMPPHGPWFSL, the amyloid nucleation score was -0.172 ± 0.34.
In the case of TFINAGFRLHFRFYRFVFSK it was -0.717 ± 1; in that of TFLGLS, 0.658 ± 0.26; in that of TFLWK, -0.349 ± 0.55.
TFMKGTVIT displayed an amyloid nucleation score of 0.759 ± 0.74.
In the case of TFMMLMEHGRIYFLWASPVA, the amyloid nucleation score is -1.68 ± 1.1.
Next, TFPNLHFCFTLLLYKGCVCG: -0.101 ± 1.1; TFVLLRSW: 2.34 ± 0.13; TFWGTTY: “inactive”.
In the case of TFYIYGIHSLA it was -0.917 ± 0.34; in that of TGAGVNTGEFCWVDPRSDYQ, -0.161 ± 1.1.
